B1: RalA (natural protein)
chain: MAANKPKGQNSLALHKVIMVGSGGVGKSALTLQFMYDEFVEDYEPTKADSYRKKVVLDGEEVQIDILDTAGQEDYAAIRDNYFRSGEGFLCVFSITEMESFAATADFREQILRVKEDENVPFLLVGNKSDLEDKRQVSVEEAKNRAEQWNVNYVETSAKTRANVDKVFFDLMREIRARKMEDSKEKNGKKKRKSLAKRIRERCCIL
modifications: biotinylated in SPR; unlabelled in fluorescence polarisation
B2: Rab25 (natural protein)
chain: MGNGTEEDYNFVFKVVLIGESGVGKTNLLSRFTRNEFSHDSRTTIGVEFSTRTVMLGTAAVKAQIWDTAGLERYRAITSAYYRGAVGALLVFDLTKHQTYAVVERWLKELYDHAEATIVVMLVGNKSDLSQAREVPTEEARMFAENNGLLFLETSALDSTNVELAFETVLKEIFAKVSKQRQNSIRTNAITLGSAQAGQEPGPGEKRACCISL
modifications: biotinylated in SPR; unlabelled in fluorescence polarisation
B3: 225-15a/b heterodimeric miniprotein (designed binder)
chain 1: SGPRRPRCPGDQASLEELHEYWARLWNYLYRVAH
chain 2: GGGPRRPRCPGDNASIKQLHAYWQRLYAYLAAVA
modifications: oxidized dimer (disulfide with the other chain) | oxidized dimer (disulfide with the other chain)

Key:
225-3 miniprotein = 225-3 miniprotein (fluorescein (N-(5-fluoresceinyl)maleimide) in fluorescence polarisation; biotin-PEG2-maleimide where immobilised in SPR; unlabelled otherwise); experiment: FP; GppNHp
KRas(WT) = KRas(WT) (human, UniProt P01116 1-187, 15N-labelled in NMR; biotin on the yBBr tag (by Sfp) in SPR); experiment: SPR; GppNHp

Binder | Kd (225-3 miniprotein) | Kd (KRas(WT))
B1 | > 10 µM | –
B2 | > 10 µM | –
B3 | – | 90 pM

Source: PMC5836121 (2017)
